Assay results published in publication PMC2596940.
Read-outs that look alike come from different tables or passages of the source.

Substance | other (SUMOylation at K587) | other (SUMOylation at K595)
amyloid precursor protein (APP): K587R | increases | –
amyloid precursor protein (APP): K587R/K595R | increases | increases
amyloid precursor protein (APP): K595R | – | increases
